According to patent US20100015126A1, “Methods of Binding of Cross-Beta Structures By Chaperones” (priority 2006, published 2010):

Key:
[1] = biological target: IGLC1 protein (immunoglobulin lambda C1)/immunoglobulin lambda chain/immunoglobulin C1 segment protein (fragment) (human) (UniProt P0CG04); experiment: BiP-Sepharose pull-down, RA patient IV synovial fluid (B6), MS of urea eluate; may be indirect
[2] = biological target: Isoform H17 of Myeloperoxidase precursor (human) (UniProt P05164); experiment: BiP-Sepharose pull-down, RA synovial fluid sample 4B, 1 M NaCl eluate, MS; may be indirect
[3] = biological target: IGHM protein, coagulation factor VII (serum prothrombin conversion accelerator) (human) (UniProt P08709); experiment: as above
[4] = biological target: Hypothetical protein/Heat shock 70 kDa protein 5 (glucose-regulated protein, 78 kDa = GRP78 = BiP = HSPA5), as identified in eluates (human) (UniProt P11021); experiment: BiP-Sepharose pull-down, RA synovial fluid sample 5B, 1 M NaCl eluate, MS; BiP may stem from the column
[5] = biological target: Hypothetical protein DKFZp686I04196 (Fragment)/Immunoglobulin heavy constant gamma 2 (G2m marker)/Ig gamma-2 chain C region (human) [IgG part: P01859]; experiment: BiP-Sepharose pull-down, RA synovial fluid sample 2B, 1 M NaCl eluate, MS; may be indirect
[6] = biological target: FLJ00385 protein (Fragment), immunoglobulin heavy constant mu (human) (UniProt P01871); experiment: as above
[7] = biological target: Phosphatase and actin regulator 4 isoform 1/Hypothetical protein DKFZp686L07205 (human) (UniProt Q8IZ21); experiment: BiP-Sepharose pull-down, RA patient III serum (B4), MS of urea eluate; may be indirect
[8] = biological target: 187 kDa protein/Complement component 3 (human) (UniProt P01024); experiment: as above
[9] = biological target: Isoform 1 of Plectin-1 (human) (UniProt Q15149); experiment: as above
[10] = biological target: Dapper homolog 1 (hDPR1) (human) (UniProt Q9NYF0); experiment: as above
[11] = biological target: Complement component 4 binding protein, alpha, C4b-binding protein alpha chain precursor (C4bp) (human) (UniProt P04003); experiment: as above
[12] = biological target: Hypothetical protein DKFZp686I04196 (Fragment)/Immunoglobulin heavy constant gamma 2 (G2m marker)/Ig gamma-2 chain C region (human) [IgG part: P01859]; experiment: as above
[13] = biological target: V1-3 protein (Fragment)/immunoglobulin lambda variable 2-11 (human) (UniProt P01706); experiment: as above
[14] = biological target: IGLC1 protein (immunoglobulin lambda C1)/immunoglobulin lambda chain/immunoglobulin C1 segment protein (fragment) (human) (UniProt P0CG04); experiment: as above
[15] = biological target: GCN1 general control of amino-acid synthesis 1-like 1 (yeast)/GCN1-like protein 1 (HsGCN1) (human) (UniProt Q92616); experiment: as above
[16] = biological target: Ig lambda chain V-III region SH (human) (UniProt P01714); experiment: as above
[17] = biological target: Immunoglobulin lambda variable 3-25/V2-17 protein (Fragment) (human) (UniProt P01717); experiment: as above
[18] = biological target: Vitronectin precursor (Serum-spreading factor/S-protein) (human) (UniProt P04004); experiment: as above
[19] = biological target: Immunoglobulin J chain, Immunoglobulin J polypeptide (human) (UniProt P01591); experiment: as above
[20] = biological target: Alpha-1-antitrypsin precursor/Serpin peptidase inhibitor, clade A, member 1 (human) (UniProt P01009); experiment: as above
[21] = biological target: CD5 antigen-like precursor (SP-alpha, CT-2, IgM-associated peptide)/CD5 molecule-like (human) (UniProt O43866); experiment: as above
[22] = biological target: 25 kDa protein/immunoglobulin lambda chain/rheumatoid factor G9 light chain (lambda V3)/IGLC1 protein (human) (UniProt P0CG04); experiment: BiP-Sepharose pull-down, AL amyloidosis patient I plasma (B2), MS of urea eluate; may be indirect
[23] = biological target: Isoform Long of Antigen KI-67/Antigen KI-67 (human) (UniProt P46013); experiment: as above
[24] = biological target: IGLC2 protein (immunoglobulin lambda C2)/Immunoglobulin lambda (human) (UniProt P0DOY2); experiment: as above
[25] = biological target: Fc fragment of IgG binding protein (IgGFc-binding protein precursor) (human) (UniProt Q9Y6R7); experiment: as above
[26] = biological target: Immunoglobulin heavy constant gamma 3 (G3m marker)/Ig gamma-3 chain C region (human) (UniProt P01860); experiment: as above
[27] = biological target: Immunoglobulin lambda variable 3-25/V2-17 protein (Fragment) (human) (UniProt P01717); experiment: as above
[28] = biological target: Apolipoprotein E precursor/Apolipoprotein E/Apolipoprotein E3 (Fragment) (human) (UniProt P02649); experiment: as above
Chain of Apolipoprotein E precursor/Apolipoprotein E/Apolipoprotein E3 (Fragment) (human) (P02649 19-317 limits assumed): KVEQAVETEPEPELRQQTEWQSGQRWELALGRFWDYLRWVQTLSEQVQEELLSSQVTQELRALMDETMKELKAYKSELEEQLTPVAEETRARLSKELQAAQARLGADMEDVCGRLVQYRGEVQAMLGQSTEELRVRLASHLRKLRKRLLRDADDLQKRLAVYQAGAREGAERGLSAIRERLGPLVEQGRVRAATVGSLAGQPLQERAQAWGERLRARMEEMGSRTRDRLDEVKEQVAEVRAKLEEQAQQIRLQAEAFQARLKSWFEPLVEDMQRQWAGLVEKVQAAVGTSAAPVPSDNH

Chain of Hypothetical protein DKFZp686I04196 (Fragment)/Immunoglobulin heavy constant gamma 2 (G2m marker)/Ig gamma-2 chain C region (human) [IgG part: P01859] (P01859 other isoform, or with tags, fused parts or gaps limits assumed): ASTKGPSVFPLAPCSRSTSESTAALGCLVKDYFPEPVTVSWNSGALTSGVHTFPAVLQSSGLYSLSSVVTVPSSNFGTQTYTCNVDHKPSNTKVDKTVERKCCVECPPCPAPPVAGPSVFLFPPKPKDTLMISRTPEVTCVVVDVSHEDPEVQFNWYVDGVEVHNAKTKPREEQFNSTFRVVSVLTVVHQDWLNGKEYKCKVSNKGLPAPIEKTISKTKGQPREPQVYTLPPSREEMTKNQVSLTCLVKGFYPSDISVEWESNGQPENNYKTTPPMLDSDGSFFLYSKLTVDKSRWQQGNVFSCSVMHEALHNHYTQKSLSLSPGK
Chain of IGLC1 protein (immunoglobulin lambda C1)/immunoglobulin lambda chain/immunoglobulin C1 segment protein (fragment) (human) (P0CG04 whole entry, the tested form may be a part, canonical isoform): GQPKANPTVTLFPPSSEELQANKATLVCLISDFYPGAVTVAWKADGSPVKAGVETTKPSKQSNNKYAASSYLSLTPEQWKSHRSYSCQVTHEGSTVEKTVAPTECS
Chain of Immunoglobulin lambda variable 3-25/V2-17 protein (Fragment) (human) (P01717 20-112 limits assumed): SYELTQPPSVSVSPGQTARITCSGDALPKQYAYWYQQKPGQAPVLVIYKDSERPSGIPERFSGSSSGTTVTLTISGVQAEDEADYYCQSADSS
Chain of Vitronectin precursor (Serum-spreading factor/S-protein) (human) (P04004 20-478 limits assumed): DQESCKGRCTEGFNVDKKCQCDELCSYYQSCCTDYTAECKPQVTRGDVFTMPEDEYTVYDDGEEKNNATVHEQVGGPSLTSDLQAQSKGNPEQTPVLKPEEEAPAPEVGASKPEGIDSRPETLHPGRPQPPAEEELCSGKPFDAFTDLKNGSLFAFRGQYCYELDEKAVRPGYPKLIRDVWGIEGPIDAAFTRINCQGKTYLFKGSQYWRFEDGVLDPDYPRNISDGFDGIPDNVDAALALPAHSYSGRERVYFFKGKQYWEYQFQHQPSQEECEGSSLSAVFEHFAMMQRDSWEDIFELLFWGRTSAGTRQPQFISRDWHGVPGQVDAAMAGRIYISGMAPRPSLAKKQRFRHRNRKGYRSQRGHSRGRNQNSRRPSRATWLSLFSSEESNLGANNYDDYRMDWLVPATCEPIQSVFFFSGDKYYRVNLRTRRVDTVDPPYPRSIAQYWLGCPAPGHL
Chain of Dapper homolog 1 (hDPR1) (human) (Q9NYF0 whole entry): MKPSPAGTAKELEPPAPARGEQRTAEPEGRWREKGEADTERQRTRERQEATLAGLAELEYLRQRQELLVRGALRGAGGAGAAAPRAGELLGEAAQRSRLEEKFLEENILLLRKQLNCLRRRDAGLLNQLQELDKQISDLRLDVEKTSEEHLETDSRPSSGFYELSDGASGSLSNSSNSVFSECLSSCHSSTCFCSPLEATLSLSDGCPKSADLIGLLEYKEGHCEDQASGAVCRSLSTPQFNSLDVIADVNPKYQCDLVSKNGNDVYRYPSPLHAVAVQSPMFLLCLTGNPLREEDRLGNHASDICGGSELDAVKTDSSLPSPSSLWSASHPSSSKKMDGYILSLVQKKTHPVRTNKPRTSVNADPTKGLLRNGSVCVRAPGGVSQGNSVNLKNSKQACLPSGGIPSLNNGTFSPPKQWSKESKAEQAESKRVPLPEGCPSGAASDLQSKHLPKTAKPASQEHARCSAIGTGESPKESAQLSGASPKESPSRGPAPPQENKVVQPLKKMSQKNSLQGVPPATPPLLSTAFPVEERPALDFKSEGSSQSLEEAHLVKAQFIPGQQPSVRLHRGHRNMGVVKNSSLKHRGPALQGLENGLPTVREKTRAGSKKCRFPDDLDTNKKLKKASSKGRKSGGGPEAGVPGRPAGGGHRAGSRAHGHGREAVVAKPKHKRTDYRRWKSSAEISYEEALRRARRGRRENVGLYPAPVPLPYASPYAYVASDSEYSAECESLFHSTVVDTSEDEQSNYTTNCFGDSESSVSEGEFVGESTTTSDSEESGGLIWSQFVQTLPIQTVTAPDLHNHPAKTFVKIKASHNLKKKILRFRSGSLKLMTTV
Chain of Complement component 4 binding protein, alpha, C4b-binding protein alpha chain precursor (C4bp) (human) (P04003 49-597 limits assumed): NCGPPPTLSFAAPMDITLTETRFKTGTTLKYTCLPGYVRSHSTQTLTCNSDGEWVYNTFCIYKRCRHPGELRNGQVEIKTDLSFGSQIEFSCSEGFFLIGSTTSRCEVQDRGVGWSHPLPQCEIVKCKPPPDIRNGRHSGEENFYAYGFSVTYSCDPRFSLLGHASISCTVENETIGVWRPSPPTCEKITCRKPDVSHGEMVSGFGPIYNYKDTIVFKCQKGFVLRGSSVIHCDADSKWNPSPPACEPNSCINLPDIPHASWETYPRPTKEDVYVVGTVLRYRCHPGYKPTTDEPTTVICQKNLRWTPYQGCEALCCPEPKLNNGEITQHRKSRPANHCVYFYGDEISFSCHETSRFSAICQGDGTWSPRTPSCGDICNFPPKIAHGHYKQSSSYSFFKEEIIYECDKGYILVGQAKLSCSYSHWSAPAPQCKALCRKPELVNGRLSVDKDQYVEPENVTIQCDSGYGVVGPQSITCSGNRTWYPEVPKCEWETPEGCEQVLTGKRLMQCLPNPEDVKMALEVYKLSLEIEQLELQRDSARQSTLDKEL
Chain of V1-3 protein (Fragment)/immunoglobulin lambda variable 2-11 (human) (P01706 20-119 limits assumed): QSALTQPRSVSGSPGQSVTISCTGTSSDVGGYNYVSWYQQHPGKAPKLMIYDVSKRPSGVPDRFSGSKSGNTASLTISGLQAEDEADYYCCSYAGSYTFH
Chain of FLJ00385 protein (Fragment), immunoglobulin heavy constant mu (human) (P01871 other isoform, or with tags, fused parts or gaps limits assumed): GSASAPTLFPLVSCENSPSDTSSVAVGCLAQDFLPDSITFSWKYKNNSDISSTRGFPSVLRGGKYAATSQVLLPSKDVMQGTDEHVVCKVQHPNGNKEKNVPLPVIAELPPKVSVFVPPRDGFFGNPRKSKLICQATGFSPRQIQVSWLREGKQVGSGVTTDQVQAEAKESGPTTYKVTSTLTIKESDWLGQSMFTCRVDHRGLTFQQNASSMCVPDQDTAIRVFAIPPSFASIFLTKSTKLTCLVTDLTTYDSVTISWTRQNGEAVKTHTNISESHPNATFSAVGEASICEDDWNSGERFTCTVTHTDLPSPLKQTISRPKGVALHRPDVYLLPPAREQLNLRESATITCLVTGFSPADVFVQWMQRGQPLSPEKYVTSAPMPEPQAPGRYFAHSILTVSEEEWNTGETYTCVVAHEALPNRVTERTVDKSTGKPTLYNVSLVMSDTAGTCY
Chain of Hypothetical protein/Heat shock 70 kDa protein 5 (glucose-regulated protein, 78 kDa = GRP78 = BiP = HSPA5), as identified in eluates (human) (P11021 19-654 limits assumed): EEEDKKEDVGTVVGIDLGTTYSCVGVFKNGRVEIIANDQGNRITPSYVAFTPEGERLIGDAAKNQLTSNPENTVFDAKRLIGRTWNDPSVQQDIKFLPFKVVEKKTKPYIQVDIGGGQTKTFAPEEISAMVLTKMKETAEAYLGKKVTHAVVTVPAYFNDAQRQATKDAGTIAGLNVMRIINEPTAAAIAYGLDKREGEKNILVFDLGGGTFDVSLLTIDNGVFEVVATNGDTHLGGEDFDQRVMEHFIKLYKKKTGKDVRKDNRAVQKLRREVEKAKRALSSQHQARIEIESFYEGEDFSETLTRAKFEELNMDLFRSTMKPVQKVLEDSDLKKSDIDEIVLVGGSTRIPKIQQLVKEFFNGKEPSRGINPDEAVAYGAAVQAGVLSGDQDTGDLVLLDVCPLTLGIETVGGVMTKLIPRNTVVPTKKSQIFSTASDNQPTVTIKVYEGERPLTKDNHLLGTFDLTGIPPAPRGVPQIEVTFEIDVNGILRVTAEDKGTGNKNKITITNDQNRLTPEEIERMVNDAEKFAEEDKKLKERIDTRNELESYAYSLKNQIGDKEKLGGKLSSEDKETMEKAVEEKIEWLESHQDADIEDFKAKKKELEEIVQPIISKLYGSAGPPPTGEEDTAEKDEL
Chain of Ig lambda chain V-III region SH (human) (P01714 21-112 limits assumed): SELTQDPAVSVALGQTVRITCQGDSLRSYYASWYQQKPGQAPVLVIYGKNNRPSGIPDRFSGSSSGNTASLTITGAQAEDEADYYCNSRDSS
Chain of Alpha-1-antitrypsin precursor/Serpin peptidase inhibitor, clade A, member 1 (human) (P01009 25-418 limits assumed): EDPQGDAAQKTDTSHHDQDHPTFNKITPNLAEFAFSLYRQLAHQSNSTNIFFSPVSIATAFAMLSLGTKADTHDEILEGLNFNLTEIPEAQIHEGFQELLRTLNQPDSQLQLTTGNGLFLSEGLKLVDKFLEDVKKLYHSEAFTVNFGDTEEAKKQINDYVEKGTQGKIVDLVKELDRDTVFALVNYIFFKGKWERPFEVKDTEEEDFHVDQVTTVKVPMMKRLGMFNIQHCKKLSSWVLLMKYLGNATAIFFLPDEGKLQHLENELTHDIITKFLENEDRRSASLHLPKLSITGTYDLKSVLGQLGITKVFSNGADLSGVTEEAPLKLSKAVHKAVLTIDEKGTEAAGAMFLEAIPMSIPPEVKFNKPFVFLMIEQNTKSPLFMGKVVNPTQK
Chain of Immunoglobulin heavy constant gamma 3 (G3m marker)/Ig gamma-3 chain C region (human) (P01860 other isoform, or with tags, fused parts or gaps limits assumed): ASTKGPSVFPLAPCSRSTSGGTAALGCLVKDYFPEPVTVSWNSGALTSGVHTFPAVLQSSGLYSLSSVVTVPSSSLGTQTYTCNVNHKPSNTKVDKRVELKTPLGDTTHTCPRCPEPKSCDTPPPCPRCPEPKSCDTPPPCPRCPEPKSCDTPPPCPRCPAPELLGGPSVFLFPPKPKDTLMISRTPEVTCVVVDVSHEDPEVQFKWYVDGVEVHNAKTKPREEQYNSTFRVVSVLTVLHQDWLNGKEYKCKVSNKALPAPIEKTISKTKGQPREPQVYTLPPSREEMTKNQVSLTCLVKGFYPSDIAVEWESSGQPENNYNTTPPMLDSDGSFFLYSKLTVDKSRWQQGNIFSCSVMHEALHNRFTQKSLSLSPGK
Chain of Immunoglobulin J chain, Immunoglobulin J polypeptide (human) (P01591 23-159 limits assumed): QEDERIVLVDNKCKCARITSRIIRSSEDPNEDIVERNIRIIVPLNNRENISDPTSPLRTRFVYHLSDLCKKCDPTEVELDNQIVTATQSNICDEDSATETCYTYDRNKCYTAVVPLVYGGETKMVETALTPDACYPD

**Q.** “recombinant human BiP with C-terminal linker, FLAG-tag and His-tag (BiP-FLAG-His) (from UniProt P11021 19-654)” was tested. Which # of peptides [1] did it give?
**A.** The # of peptides was 1 peptides.

**Q.** And the # of unique peptides [2]?
**A.** The # of unique peptides was 1 peptides.

**Q.** What about the # of unique peptides [3] of the same substance?
**A.** Its # of unique peptides is 1 peptides.

**Q.** What about the # of unique peptides [4] of the same substance?
**A.** The # of unique peptides was 10 peptides.

**Q.** And the # of unique peptides [5]?
**A.** Its # of unique peptides is 1 peptides.

**Q.** And the # of unique peptides [6]?
**A.** The # of unique peptides was 1 peptides.

**Q.** What about the # of peptides [7] of the same substance?
**A.** The # of peptides was 2 peptides.

**Q.** And the # of peptides [8]?
**A.** The # of peptides was 9 peptides.

**Q.** What about the # of peptides [9] of the same substance?
**A.** Its # of peptides is 2 peptides.

**Q.** And the # of peptides [10]?
**A.** Its # of peptides is 2 peptides.

**Q.** And the # of peptides [11]?
**A.** Its # of peptides is 7 peptides.

**Q.** What about the # of peptides [12] of the same substance?
**A.** Its # of peptides is 14 peptides.

**Q.** What about the # of peptides [13] of the same substance?
**A.** Its # of peptides is 1 peptides.

**Q.** What about the # of peptides [14] of the same substance?
**A.** The # of peptides was 2 peptides.

**Q.** And the # of peptides [15]?
**A.** The # of peptides was 2 peptides.

**Q.** And the # of peptides [16]?
**A.** The # of peptides was 2 peptides.

**Q.** What about the # of peptides [17] of the same substance?
**A.** Its # of peptides is 10 peptides.

**Q.** What about the # of peptides [18] of the same substance?
**A.** Its # of peptides is 4 peptides.

**Q.** What about the # of peptides [19] of the same substance?
**A.** The # of peptides was 5 peptides.

**Q.** And the # of peptides [20]?
**A.** The # of peptides was 1 peptides.

**Q.** And the # of peptides [21]?
**A.** Its # of peptides is 1 peptides.

**Q.** And the # of peptides [22]?
**A.** Its # of peptides is 1 peptides.

**Q.** What about the # of peptides [23] of the same substance?
**A.** The # of peptides was 1 peptides.

**Q.** What about the # of peptides [24] of the same substance?
**A.** The # of peptides was 1 peptides.

**Q.** What about the # of peptides [25] of the same substance?
**A.** Its # of peptides is 4 peptides.

**Q.** And the # of peptides [26]?
**A.** The # of peptides was 2 peptides.

**Q.** And the # of peptides [27]?
**A.** The # of peptides was 8 peptides.

**Q.** What about the # of peptides [28] of the same substance?
**A.** The # of peptides was 6 peptides.
